Key:
Test in all cases: EMSA
[1] = target: T1, FL-Pot1 (Schizosaccharomyces pombe, UniProt O13988 1-555)
T1 sequence: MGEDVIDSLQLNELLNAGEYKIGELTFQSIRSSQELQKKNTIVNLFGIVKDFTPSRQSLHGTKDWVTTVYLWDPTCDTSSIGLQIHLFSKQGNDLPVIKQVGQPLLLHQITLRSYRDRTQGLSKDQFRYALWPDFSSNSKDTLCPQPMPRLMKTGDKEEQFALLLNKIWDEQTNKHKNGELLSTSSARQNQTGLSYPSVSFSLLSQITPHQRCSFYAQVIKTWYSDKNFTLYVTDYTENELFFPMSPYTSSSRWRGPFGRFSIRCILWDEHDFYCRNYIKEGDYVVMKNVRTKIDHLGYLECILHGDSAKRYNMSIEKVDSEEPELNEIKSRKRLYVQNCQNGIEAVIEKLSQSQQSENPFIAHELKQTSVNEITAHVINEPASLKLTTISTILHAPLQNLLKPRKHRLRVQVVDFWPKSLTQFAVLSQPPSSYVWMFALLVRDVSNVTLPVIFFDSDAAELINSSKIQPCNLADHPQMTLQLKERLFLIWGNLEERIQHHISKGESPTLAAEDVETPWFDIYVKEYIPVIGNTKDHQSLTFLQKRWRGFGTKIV

[2] = target: T2, Pot1-DBD_D64A (Schizosaccharomyces pombe, UniProt O13988 1-389, D64A)
T2 sequence: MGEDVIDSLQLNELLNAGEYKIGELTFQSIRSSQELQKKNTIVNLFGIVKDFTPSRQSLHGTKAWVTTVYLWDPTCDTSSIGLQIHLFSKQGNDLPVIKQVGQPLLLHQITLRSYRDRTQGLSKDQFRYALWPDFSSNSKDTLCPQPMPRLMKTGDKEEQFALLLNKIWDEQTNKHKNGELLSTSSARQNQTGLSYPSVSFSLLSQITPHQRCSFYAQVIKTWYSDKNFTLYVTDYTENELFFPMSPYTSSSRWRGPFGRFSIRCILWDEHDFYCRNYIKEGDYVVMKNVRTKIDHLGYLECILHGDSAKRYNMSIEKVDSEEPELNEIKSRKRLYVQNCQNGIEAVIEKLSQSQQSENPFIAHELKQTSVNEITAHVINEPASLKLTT

[3] = target: T3, Pot1-DBD_L122A (Schizosaccharomyces pombe, UniProt O13988 1-389, L122A)
T3 sequence: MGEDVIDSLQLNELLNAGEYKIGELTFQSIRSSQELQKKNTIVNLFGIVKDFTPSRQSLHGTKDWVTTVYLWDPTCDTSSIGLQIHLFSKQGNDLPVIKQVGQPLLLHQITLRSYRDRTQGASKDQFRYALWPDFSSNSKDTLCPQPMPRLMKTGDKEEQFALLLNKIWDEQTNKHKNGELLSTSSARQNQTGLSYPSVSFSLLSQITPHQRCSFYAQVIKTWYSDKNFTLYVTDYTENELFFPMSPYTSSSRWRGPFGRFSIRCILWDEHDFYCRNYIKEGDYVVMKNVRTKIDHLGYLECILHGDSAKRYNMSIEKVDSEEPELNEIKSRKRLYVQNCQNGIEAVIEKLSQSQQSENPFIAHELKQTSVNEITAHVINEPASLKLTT

[4] = target: T4, Pot1-DBD_Y115A (Schizosaccharomyces pombe, UniProt O13988 1-389, Y115A)
T4 sequence: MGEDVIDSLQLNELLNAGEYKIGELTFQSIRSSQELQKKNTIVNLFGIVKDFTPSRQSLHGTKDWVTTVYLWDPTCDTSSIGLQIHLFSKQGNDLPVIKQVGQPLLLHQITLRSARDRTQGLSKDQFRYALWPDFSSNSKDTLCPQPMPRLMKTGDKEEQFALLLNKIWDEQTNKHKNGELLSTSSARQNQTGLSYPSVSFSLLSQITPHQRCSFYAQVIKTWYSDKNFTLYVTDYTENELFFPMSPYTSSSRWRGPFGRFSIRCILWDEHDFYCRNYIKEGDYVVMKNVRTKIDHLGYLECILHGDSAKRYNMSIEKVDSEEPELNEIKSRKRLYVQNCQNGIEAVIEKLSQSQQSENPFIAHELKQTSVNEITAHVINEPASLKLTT

[5] = target: T5, Pot1-DBD_F88A (Schizosaccharomyces pombe, UniProt O13988 1-389, F88A)
T5 sequence: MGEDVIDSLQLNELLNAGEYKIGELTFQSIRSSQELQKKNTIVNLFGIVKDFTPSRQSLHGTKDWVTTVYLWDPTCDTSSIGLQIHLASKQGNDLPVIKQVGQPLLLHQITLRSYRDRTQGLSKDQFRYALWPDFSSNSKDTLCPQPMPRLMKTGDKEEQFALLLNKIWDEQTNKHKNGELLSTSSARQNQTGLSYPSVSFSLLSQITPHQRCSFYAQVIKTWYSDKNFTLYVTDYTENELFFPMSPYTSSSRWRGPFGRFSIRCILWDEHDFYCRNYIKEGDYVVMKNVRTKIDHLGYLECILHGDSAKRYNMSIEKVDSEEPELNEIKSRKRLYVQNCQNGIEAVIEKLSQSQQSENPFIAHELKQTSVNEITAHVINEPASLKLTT

[6] = target: T6, Pot1-DBD_S123A (Schizosaccharomyces pombe, UniProt O13988 1-389, S123A)
T6 sequence: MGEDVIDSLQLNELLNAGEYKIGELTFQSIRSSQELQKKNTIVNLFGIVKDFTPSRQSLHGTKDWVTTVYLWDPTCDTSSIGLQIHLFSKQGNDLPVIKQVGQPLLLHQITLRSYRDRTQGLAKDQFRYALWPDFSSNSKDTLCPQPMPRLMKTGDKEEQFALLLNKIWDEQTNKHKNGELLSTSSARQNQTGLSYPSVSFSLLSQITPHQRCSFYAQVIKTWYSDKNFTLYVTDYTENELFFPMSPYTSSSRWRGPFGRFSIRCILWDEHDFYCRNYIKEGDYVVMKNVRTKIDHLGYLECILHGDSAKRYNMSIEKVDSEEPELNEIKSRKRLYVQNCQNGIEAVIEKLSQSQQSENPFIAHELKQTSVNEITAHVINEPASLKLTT

[7] = target: T7, Pot1-DBD (Schizosaccharomyces pombe, UniProt O13988 1-389)
T7 sequence: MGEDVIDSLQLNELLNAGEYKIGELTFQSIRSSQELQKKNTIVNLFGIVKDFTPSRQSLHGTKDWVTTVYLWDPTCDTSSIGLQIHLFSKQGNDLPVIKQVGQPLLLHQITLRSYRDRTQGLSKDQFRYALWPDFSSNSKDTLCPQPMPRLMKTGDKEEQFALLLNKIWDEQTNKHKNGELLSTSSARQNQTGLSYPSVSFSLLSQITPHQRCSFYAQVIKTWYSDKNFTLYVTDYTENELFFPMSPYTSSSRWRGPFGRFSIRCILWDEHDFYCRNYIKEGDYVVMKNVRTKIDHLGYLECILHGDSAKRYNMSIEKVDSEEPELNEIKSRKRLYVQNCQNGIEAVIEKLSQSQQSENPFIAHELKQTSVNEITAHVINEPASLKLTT

[8] = target: T8, Pot1-DBD_T62A (Schizosaccharomyces pombe, UniProt O13988 1-389, T62A)
T8 sequence: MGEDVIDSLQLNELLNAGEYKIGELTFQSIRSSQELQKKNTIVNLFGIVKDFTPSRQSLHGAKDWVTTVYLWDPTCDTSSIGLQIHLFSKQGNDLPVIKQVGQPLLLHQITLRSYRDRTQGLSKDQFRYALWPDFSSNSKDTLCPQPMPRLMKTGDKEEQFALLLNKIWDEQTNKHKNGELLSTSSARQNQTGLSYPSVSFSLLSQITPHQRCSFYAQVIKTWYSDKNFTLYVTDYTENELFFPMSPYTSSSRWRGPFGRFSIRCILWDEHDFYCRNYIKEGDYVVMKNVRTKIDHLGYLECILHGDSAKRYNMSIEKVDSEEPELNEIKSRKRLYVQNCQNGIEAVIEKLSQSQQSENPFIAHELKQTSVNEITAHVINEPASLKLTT

## GGTTACACGGTTACACGGT (ssDNA) [15mer_2xAC]
[1]
  Kd: 3.2 ± 0.3 pM

## GGTUACGGTTACGGT (ssDNA, U at 4 = deoxyuridine) [15_T4U]
[1]
  Kd: 3 ± 0.4 pM

## GGTTACCCAATGCCA (ssDNA) [6mer_9 comp]
[1]
  Kd: 3.8 ± 0.1 pM

## GGTTACGGTTACGGTTA (ssDNA) [17mer]
[1]
  Kd: 2.3 ± 0.1 pM

## GGUTACGGTTACGGT (ssDNA, U at 3 = deoxyuridine) [15_T3U]
[1]
  Kd: 2.6 ± 0.2 pM

## GGTTACGGTTACGG (ssDNA) [14mer]
[1]
  Kd: 2.4 ± 0.4 pM

## GGTTACTTTTTTTTT (ssDNA) [6mer_T9]
[1]
  Kd: 2.6 ± 0.2 pM

## GGTTACGGTTACGGTT (ssDNA) [16mer]
[1]
  Kd: 2.2 ± 0.04 pM

## GGTTACGGTTACGGT (ssDNA) [15mer]
[2]
  Kd: 18 ± 2.4 pM
[3]
  Kd: 10 ± 1.4 pM
[4]
  Kd: 8 ± 0.7 pM
[5]
  Kd: 120 ± 30 pM
[6]
  Kd: 3.7 ± 0.3 pM
[7]
  Kd: 2.9 ± 0.3 pM
[8]
  Kd: 6.2 ± 0.6 pM
[1]
  Kd: 2.2 ± 0.1 pM

## GGTTACGGTTACG (ssDNA) [13mer]
[1]
  Kd: 2.3 ± 0.3 pM

## GGTTACCCAATG (ssDNA) [6mer_6 comp]
[1]
  Kd: 9.5 ± 0.3 pM

## GGTTACTTTTTT (ssDNA) [6mer_T6]
[1]
  Kd: 3.2 ± 0.3 pM

## GGTTACGGTTAC (ssDNA) [12mer]
[2]
  Kd: 3400 ± 670 pM
[3]
  Kd: 770 ± 230 pM
[4]
  Kd: 49 ± 5 pM
[5]
  Kd: 7700 ± 1800 pM
[6]
  Kd: 8.2 ± 0.9 pM
[7]
  Kd: 4 ± 0.3 pM
[8]
  Kd: 48 ± 8 pM
[1]
  Kd: 2.8 ± 0.4 pM

## GGTTACGGTTACGGTTAC (ssDNA) [18mer]
[1]
  Kd: 3.8 ± 0.3 pM

## TTTTTTTTTTTTTTT (ssDNA) [T15]
[1]
  Kd: 8600 ± 1900 pM

## CGTTTGCCAATGCCA (ssDNA) [15 comp GTT]
[1]
  Kd: 10600 ± 300 pM

— article PMC3184176
